Test: soluble on expression in E. coli; label from the status in PepcDB or PDB records

Sequence | soluble on expression in E. coli
MFEKVKVSTCFHVTLLKDYIVFYVSNNLNFASRWPRRRRGQRLLPTALRAMMLNPTEALLAEVSKARTSGARITVEEFIPIYKKVEAACGRSTTLKEFQTLLSHFDREGNGQIMLMELKSMLQNGGEKMTNQEARALKPATGLDTIYRNLNFNHKFTLDHSAIGFLRTNQFFDVQMIPVSRFFTVQDPSNALLSYTQKGIDFFEKLGQFSKEKAAIEEEYSTKLRSLAKKYAKKSEEDDEILKSVSYTSSFNSFLQQLDQIATRHQTSAEHIRGGVVSYVASKTCQMRSSRKNAINDLKTINDKLEDQINEMCKSGKCYLKSFKDAENSYQKFYKADKNLEISRLELEKARALANARNEACELAKQDYSALVRKTNAEQKRYHVELLPVIFARLKAVDKECIADMRQVLQKIVSFDDSLADSTEECRKIMQREVGKIDAEGDAQLVLKSVEATIEQPAPFEIEDLGDPKNCDSRTNDSADGSGGKLLKSSPSKNRIIRNFLGILKEKEADEKPEASNNDQLMYTDKSKPAHVRLSCLRSKIRDMEKQLEQAIQGREGITRLQQAYYTNPQHGNPSACTEPLISYAKKIEKLKMDIHNLKEFYAMLEMSVEEGQERSFGGRDTPDTTRSMSGSSTNQSSSKTIEDVLSGEAGNSSSADDSSKNILRQLFTTPKRLISSPKTSKSSTPTPLRRRAEISSPKILRSSFSGAIRKSLSTPDSVKVETAVTVTALFEFAKSSAETMSIEQGEILLVLEHDHGDGWTRTKNCRKHNEESGFVPTSYLQFPQ | soluble
MAICILHYTNAQLARDWSFQQMCNFWGGEQTYHARKDGFKSLEGDKCTFNFPKASDNQKSAQQYCEDNVPYHINNAEASEYKTTCEAEATLICKSGWVQMFGRCYKITKTMMTRDKAEKHCKNQQDQTSTIAFMHREALPFRWNDYFTRVSRIWMDASEVVTNDLIYDVEGGNVLLAFDGYKYNLPNVAIARVSKDETAMVLCEYTPPMTKSESNYLLRRYGEIYYPPLVTSEAVYIRTTSSRIRNEEDKLADHKYCTEVMKPVFRGGRAQSASPTQGLHMPTQMRGINKSAPFKQNPTIKGEAVPFPLDNAIWRKGEPNESCDAATWSSAVVLSRRENEGLEVMSDARYAPIYCEQIVKGLSYTKCPDGFVEYYRKNEGKTWCHKYVWDDTANYDNAEQKCQQLGAHLSSFTSDEEFQFLNDMIAKSEQLPNTDYIEVLLGARRRKRCNDLSIVGRGGFSSDKESECSRRRVFEWLHDVAENPPNFLDAYWPSPYEPNHALVDEECLVMMSGKTNGGMVMEQGN | not soluble
MKPKTRLYYAERLEPVLAWLAARPDADADLHRLAELACLSPYYFHRVYRALLGETVHATVQRMRLARASVALAQGKGSLRQVADRAGYASEAAFSRAFSAQYGLPPGRYRAKRSSPFNPEELRMYPLTMEDFPGLSLAILAHQGDYQEIGNTFDRLALLAAIQDLVRDGMQPPPRYIGVYYDDPAQVARDALRSRAGVSLPPGTAAPAPFEPLDIPAMRCAVLEYTGPYSEIEAPYNWLFSQWLPASGQEPGDFPMFEEYLNDPKTTPAAQLKTRIYLPLA | not soluble
MSELSGKGCEIIVPFEERLPVRDIEKSIIKKYRKNLWSKFMKAIRDYKLVEEGDKIAVAISGGKDSILMAKMFQELKKHGQVNFDVEFIAMDPGYHANIRQLLIDNCEYLNIPIHLFDSRIFEIADEIAKDYPCYMCARMRRGALYSKAEELGCNKLALGHHYDDVIETTMLNLLCAGNFKTMLPKLNSTNFEGIKIIRPLYYIREEHIIRFIQNSGIWPLNCAC | not soluble
MYDLLVIGAGPGGYVAAIRAAQLGMKVGVVEKEKALGGTCLRVGCIPSKALLETTERIYEAKKGLLGAKVKGVELDLPALMAHKDKVVQANTQGVEFLFKKNGIARHQGTARFLSERKVLVEETGEELEARYILIATGSAPLIPPWAQVDYERVVTSTEALSFPEVPKRLIVVGGGVIGLELGVVWHRLGAEVIVLEYMDRILPTMDLEVSRAAERVFKKQGLTIRTGVRVTAVVPEAKGARVELEGARSWKTDRVLVAVGRRPYTEGLSLENAGLSTDERGRIPVDEHLRTRVPHIYAIGDVVRGPMLAHKASEEGIAAVEHMVRGFGHVDYQAIPSVVYTHPEIAAVGYTEEELKAQGIPYKVGKFPYSASGRARAMGETEGFIKVLAHAKTDRILGVHGIGARVGDVLAEAALALFFKASAEDLGRAPHAHPSLSEILKEAALAAWERPIHL | soluble
GIQPVISAQEQETQIVLYGKLVEARQKHANKMDVPPAILATNKILVDMAKMRPTTVENVKRIDGVSEGKAAMLAPLLEVIKHFCQTNSVQTDLFSSTKPQEEQ | soluble
GSQEEDLPRPSISAEPGTVIPLGSHVTFVCRGPVGVQTFRLERESRSTYNDTEDVSQASPSESEARFRIDSVSEGNAGPYRCIYYKPPKWSEQSDYLELLVKEAAA | soluble
MFGKGGLGNLMKQAQQMQEKMQKMQEEIAQLEVTGESGAGLVKVTINGAHNCRRVEIDPSLLEDDKEMLEDLVAAAFNDAARRIEETQKEKMASVSSGMQLPPGFKMPF | soluble
MGSDKIHHHHHHMNRTQLSQLAVLSAVAAHGSFRGAAKELGIAPSAVSHAVGSLEASLGVRLLARTTRSVAATEEGKRLLERLRPALDDIAEALQRAAEARDRPAGKLRITAPRFAADLILAPRLGDFLGRYPDTVLEIANEDGFTNIVEEGYDAGIRLGESLEADMVAVKVGPELKSAVVAAPSYFERFQRPRHPRDLAGHRCIRRRFSNGTIYRWEFEKEGEELTVSVNGPLILGEDRPIIEAATGGAGLAYLFEPRVSGYVAEGKLVRVLEDWCAPYAGPFLYYPTRRLMRPALRAFIDFFRHSG | not soluble
MSELNLSPDKLTVLLMGGSFGAGNIKETLDELLDTDRDFQILVITGKNESLKEKIEKKLMSRYHDKNVCVLGYTDKMNDILASIDVLVSKPGGLTTTEALLKDVPMIVPYYIPGQEEENLDFLSNCGAALRTTKKYNLSILLKVLIDDPSRLEMLKRNIKSIRKSNSAQNIANLILNIISGLEHHHHHH | not soluble
AHHHHHHGSVEVKKHKFPGVYVVIDDDGSEKIATKNLVPGQRVYGERVIKWEGEEYRIWNPHRSKLGAAIVNGLKNFPIKPGKSVLYLGIASGTTASHVSDIVGWEGKIYGIEFSPRVLRELVPIVEERRNIIPILGDATKPEEYRALVTKVDVIFEDVAQPTQAKILIDNAKAYLKRGGYGMIAVKSRSIDVTKEPEQVFKEVERELSEYFEVIERLNLEPYEKDHALFVVRKP | soluble
MSYVIDRRLNGKNKSTVNRQRFLRRYRDHIKKAVEEAVSRRSITDMEHGEQISIPGRDIDEPVLHHGRGGKQTVVHPGNKEFTTGEHIARPQGGAGGKGPGKAGNSGEGMDEFSFQITQEEFLEFMFEDLELPNLVKRNLTGTDTFKTVRAGISNEGNPSRINIIRTLRSAHARRIALSGSSRAKLREATSELERIKREEPDNFGDIQALEVEIDRLKARIRRVPYLDTFDLKYNLLVKQPNPSSKAVMFCLMDVSGSMTQATKDIAKRFFILLYLFLKRNYDKIDVVFIRHHTSAREVDEEEFFYSRETGGTIVSSALKLMQEIMAARYPSSDWNIYAAQASDGDNWNDDSPICREILTKQIMPFVQYYTYVEITPREHQALWYEYERIGDDFADTFAQQQLVSAGDIYPVFRELFQRRLVSAAALEHHHHHH | not soluble
MENIFLKRLEFKAFEEDSVFSKIEGLNKFNSLNFKKPITFFSGENGTGKSTLLEAIAVNWGFNPEGGSINFNFSTKDTHLDLHNYLTVGKSVKRATDGFFLRAESFYNVATYAENIDLDFSEYGDKSLHHQSHGESFLNLVNHRFRGNGLYLLDEPEAALSPQRQLALMISIKKLIDEGSQFIIVSHSPILLAMPDSQIISFDKDSPLEITYEESMPYEITSLFLNNKNRILSHLFAE | not soluble
MAHHHHHHMLRIGICHFSRQEPQVIGTSVPSFRHFPYRAQDVLHLYRDFLRLIHQHPPQERADLLFRLHNEFYRRRHLTSPKMITGAIKRGEGILNVQRSMLESKTLRARGVSSREQGAQNVDGLWDQLQMLSGHVLPGLRNFRPSRNVLKGSYTQQATTQAVYSRRRL | not soluble
CYVDTNNDGAYEGDELSGTMEYKLILNGKTLKGETTTCAVDAATAEKVFKQYANDNGVDGEWTYDDATKTFTVTE | soluble
EPFWADLQPRVAFVERGGSLWLNCSTNCPRPERGGLETSLRRNGTQRGLRWLARQLVDIREPETQPVCFFRCARRTLQARGLIRTFQRPDRVELMPLPPWQPVGENFTLSCRVPGAGPRASLTLTLLRGAQELIRRSFAGEPPRARGAVLTATVLARREDHGANFSCRAELDLRPHGLGLFENSSAPRELRTFSLS | soluble
